Test results taken from PMC7725843, “Structural and biochemical analyses of an aminoglycoside 2′-N-acetyltransferase from Mycolicibacterium smegmatis” (Scientific Reports, 2020).

Target: the molecule itself
Experiment: AUC; analytical ultracentrifugation of apo-AAC(2′)-Id; 20 mM Tris-HCl (pH 8.0), 150 mM NaCl, 293 K, 40,000 rpm, monitored at 280 nm, SEDFIT

B1: Aminoglycoside 2′-N-acetyltransferase from Mycolicibacterium smegmatis [AAC(2′)-Id] (enzyme)
chain: MLTQHVSEARTRGAIHTARLIHTSDLDQETRDGARRMVIEAFRDPSGDSDFTDDFTDDDWDHALGGMHALISHHGALIAHGAVVQRRLMYRGPDGRGHALRCGYVEAVAVREDRRGDGLGTAVLDALEQVIRGAYQIGALSASDIARPMYIARGWLSWEGPTSVLTPTEGIVRTPEDDRSLFVLPVDLPDGLELDTAREITCDWRSGDPW
notes: also called apo-AAC(2′)-Id; AAC(2′) from M. smegmatis; source: E. coli BL21(DE3), purified (Ni-NTA, Q-Sepharose, thrombin cleavage, Superdex 200); not shown: His-tag, N-terminal, cleaved
In the case of B1, the “stoichiometry N” value is reported as 2.
